These results are taken from article PMC12519263, “Antifibrotic Efficacy of a Nintedanib–Peptide Conjugate and Diagnostic Potential of a Fluorescent Companion Probe Targeting αVβ6 Integrin in Idiopathic Pulmonary Fibrosis” (ACS Pharmacology & Translational Science, 2025).

Numbered stars: 1 amine (or outer) side, 2 acyl side, 3 side chain; on linkers, the order of the positions; unused ones are H or OH. Square brackets hold non-standard residues; d marks the D form. Peptide text beside a SMILES is read from it. X1 = [N-]=[N+]=NCCCCN1C[C@@H](N[*:1])C[C@H]1C(=O)[*:2]

As usually defined, the IC50 is the concentration at which inhibition is half-maximal.

The target of one data set is T1, human αvβ6 integrin (Homo sapiens, UniProt P06756+P18564, DEL708-788).
T1 construct: purchased R&D Systems
The data set can be described thus: Competitive solid-phase αvβ6 integrin binding assay to coated LAP. The note with it: competitive solid-phase binding to coated LAP (0.4 μg/mL); soluble human αvβ6 0.25 μg/mL; compounds 10^-5–10^-10 M, 1 h room temperature; absorbance 450 nm; mean ± SD of three independent experiments in triplicate. How it is done: The ability of conjugate 1 to bind to the human, isolated αvβ6 integrin receptor was evaluated by a competitive solid-phase ligand-binding assay on purified αvβ6 integrin in the presence of increasing concentrations (10^–10–10^–5 M) of 1. To better evaluate the impact of the linker and nintedanib moieties on the binding capability of 1, the results (Table ) were compared to those obtained for free cyclopeptide 3 and previously reported cyclopeptide 11 (the deprotected version of prot-11, Scheme ). Binding curves are provided in Figure S3, Supporting Information.
The affinity of integrin ligands 1, 3, and 11 was determined by the solid-phase binding assay using soluble αvβ6 integrin and coated LAP, according to a previously reported protocol. Flat-bottom 96-well plates (Corning Costar, Segrate, Milan, Italy) were coated by passive adsorption with LAP (TGF-β; 0.4 μg/mL; R&D Systems) in carbonate buffer (15 mM Na2CO3 and 35 mM NaHCO3, pH 9.6; 100 μL/well) overnight at 4 °C. After three washes with PBS-T buffer (phosphate-buffered saline–Tween20, 137 mM NaCl, 2.7 mM KCl, 10 mM Na2HPO4, 2 mM KH2PO4, and 0.01% Tween20, pH 7.4; 200 μL/well), wells were blocked with TS-B buffer (Tris–saline/BSA buffer; 20 mM Tris–HCl, 150 mM NaCl, 1 mM CaCl2, 1 mM MgCl2, 1 mM MnCl2, pH 7.5, and 1% BSA; 150 μL/well) for 1 h at room temperature. After washing the assay plate three times with PBS-T (200 μL/well), soluble human αvβ6 integrin (0.25 μg/mL, R&D Systems) was incubated with compounds and tested at different concentrations (10^–5–10^–10 M), in the coated wells for 1 h at room temperature. The plate was washed three times with PBS-T buffer, and anti-αv primary antibody (1:500 dilution, 100 μL/well; mouse antihuman MAB1978, Merck Life Science, Milan, Italy) was added and incubated for 1 h at room temperature. […] The reaction was stopped with 1 M H2SO4 (50 μL/well), and the absorbance was measured at 450 nm with an EnSpire Multimode Plate Reader (PerkinElmer, Waltham, MA). […] Data analysis and IC50 affinity values were calculated using GraphPad Prism 10.4.1 (GraphPad Software, San Diego, CA). […]

Data set [1] in a line: In vitro stability in human plasma (LC-MS/MS). The note with it: 80% v/v human plasma in 100 mM PBS pH 7.4, 37 °C, plasma pre-incubated 10 min, 1% DMSO, LC-MS/MS (MRM, ESI+), vs t = 0, mean ± SD (n=3), read-out: % Compound at 6h human plasma. The format is in vitro ADME. How it is done:
(§1) 2. In vitro plasma stability of compounds 1 and 2
(§2) Stability of compounds 1 and 2 in mouse and human plasma was evaluated by incubating 5 μL of a 100 µM solution of each compound in DMSO with 400 μL of plasma and 95 μL of 100 mM phosphate buffered saline (PBS) pH 7.4 (final compound concentration: 1 µM; final DMSO concentration: 1%). Plasma samples were pre-incubated at 37 °C for 10 min before adding the compound. At different time points, an aliquot was withdrawn from each sample and deproteinized by addition of 100 μL of ice-cold acetonitrile containing the structurally related compound 13 as internal standard (Table S1). After a centrifugation step (14,000 g, 10 min, 4 °C), the supernatants were analyzed by LC-MS/MS. A multiple reaction monitoring (MRM) acquisition method in positive ion mode (ESI+) was set up to monitor the remaining percentages of test compound at different time points, if compared to time t = 0.
(§3) LC-MS/MS Analytical Method. A Thermo TSQ Quantum triple-quadrupole mass spectrometer (Thermo Italia, Milan, Italy) equipped with a heated electrospray (H-ESI) ion source and coupled to a Thermo Accela UHPLC system was employed for LC-MS/MS data acquisition and analysis. The LC separation occurred on a Waters XSelect HSS T3 column (3.5 μm, 2.1 × 100 mm; Waters, Milford, USA) at room temperature. […]

Data set [2] can be described thus: In vitro stability in mouse plasma (LC-MS/MS). Type of data set: in vitro ADME. To be noted: 80% v/v mouse plasma in 100 mM PBS pH 7.4, 37 °C, plasma pre-incubated 10 min, 1% DMSO, LC-MS/MS (MRM, ESI+), vs t = 0, mean ± SD (n=3), read-out: % Compound at 6h mouse plasma. How it is done:
as §1, §2, §3

Data set [3] has as its target soluble human αvβ6 integrin (human) (UniProt P06756). Description: ELISA; competitive solid-phase binding assay: LAP (0.4 μg/mL) coated in carbonate buffer pH 9.6 overnight at 4 °C, blocked with TS-B buffer (20 mM Tris–HCl, 150 mM NaCl, 1 mM CaCl2, 1 mM MgCl2, 1 mM MnCl2, pH 7.5, 1% BSA); soluble human αvβ6 (0.25 μg/mL) incubated with compounds (10^-5–10^-10 M) in the coated wells 1 h at room temperature; bound integrin detected with anti-αv antibody and HRP secondary.

For the compound `CC(C)C[C@@H]1NC(=O)[C@H](CC(=O)O)NC(=O)CNC(=O)[C@H](CCCNC(=N)N)NC(=O)[C@H](CC(C)C)NC(=O)[C@@H]2C[C@@H](CN2C(=O)CCCCCN=[N+]=[N-])NC1=O` [compound 11], the IC50 at human αvβ6 integrin was determined as 30.3 ± 7.6 nM.

The compound `CC(C)C[C@@H]1NC(=O)[C@H](CC(=O)O)NC(=O)CNC(=O)[C@H](CCCNC(=N)N)NC(=O)[C@H](CC(C)C)NC(=O)[C@@H]2C[C@@H](CN2CCCCN=[N+]=[N-])NC1=O` [compound 3] (cyclo(RGDL[X1]L)) yielded an IC50 at human αvβ6 integrin of 4.52 ± 0.68 nM. The compound `COC(=O)c1ccc2c(c1)NC(=O)/C2=C(\Nc1ccc(N(C)C(=O)CN2CCN(CCOCCOCCOCc3cn(CCCCN4C[C@@H]5C[C@H]4C(=O)N[C@@H](CC(C)C)C(=O)N[C@@H](CCCNC(=N)N)C(=O)NCC(=O)N[C@@H](CC(=O)O)C(=O)N[C@@H](CC(C)C)C(=O)N5)nn3)CC2)cc1)c1ccccc1` [compound 1] came in with an IC50 at human αvβ6 integrin of 1.95 ± 0.16 nM. Also, the figures for the remaining at 6 h in data set [1] and in data set [2] were 96 ± 5% and 95 ± 4%, respectively. Regarding `CC(C)C[C@@H]1NC(=O)[C@H](CC(=O)O)NC(=O)CNC(=O)[C@H](CCCNC(=N)N)NC(=O)[C@H](CC(C)C)NC(=O)[C@@H]2C[C@@H](CN2C(=O)CCCCCNC(=O)CCc2ccc(OC3=C(/C=C/C4=[N+](CCC[N+](C)(C)C)c5ccc(S(=O)(=O)O)cc5C4(C)C)CCC/C3=C\C=C3\N(CCC[N+](C)(C)C)c4ccc(S(=O)(=O)O)cc4C3(C)C)cc2)NC1=O` [compound 2], the figures for the remaining at 6 h in data set [1] and in data set [2] were 51 ± 3% and 59 ± 3%, respectively. Regarding c(phg-isoDGRk) (peptide), the IC50 in data set [3] came out at 24.7 nM.
